Key:
[1] = test system: follicle cells / border cells; assay: ER stress markers (Xbp1::EGFP, PDI) in cells lacking Catsup; type: in vivo, Drosophila; conditions: mosaic clones expressing CatsupRNAi
Description: To test if Catsup knockdown induces the UPR in follicle cells, we compared expression of the ER stress marker Xbp1::EGFP^59 in mosaic border cell clusters composed of heterozygous Catsup^+/− and homozygous Catsup^−/− mutant cells. We found high levels of Xbp1 in Catsup^−/− but not Catsup^+/− border cells (FIG. 4A-A″). […] Accumulation of XBP1 and PDI are indicative of induction of an adaptive UPR^60. This effect was rescued by co-expression of CatsupV5 (FIG. 4C-C″).
(§1) Catsup mutant fly was generated by ethyl methanesulfonate (EMS) mutagen^37. The mutation results in glycine(G) to aspartic acid(D) replacement at amino acid 178. The FLP/FRT system was used to generate the Catsup^G178D homozygous mutant clones by combining FRT40A-Catsup^G178D with hsFLP12,yw;ubi:GFPnls, FRT40A or hsFLP12,yw;ubi:RFPnls, FRT40A/(CyO). Catsup::GFP expression pattern visualized by the line from VDRC 318542 in the fTRG stocks library. The UAS-CatsupRNAi transgenic line is from VDRC 100095 P{KK103630}VIE-260B. Wild type rescue w[*]; sna[Sco]/CyO; P{w[+mCJ=UAS-Catsup. V5}6 Bloomington 63229. […]

[2] = test system: misfolded rhodopsin protein Rh1^G69D; assay: Rh1^G69D protein abundance in cells over-expressing Catsup (ERAD); type: in vivo, Drosophila; conditions: border cells, overexpression
Method: The UPR reinstates ER homeostasis by upregulating the protein-folding capacity of the ER and increasing its protein-degradation capacity^62. During ERAD, misfolded proteins are extruded from the ER, ubiquitinated, and degraded by the proteasome^60. To test whether Catsup overexpression might enhance ERAD, we examined Rh1^G69D protein abundance in cells over-expressing Catsup.
Female flies were fattened with yeast for 2 days at 29° C. Egg chambers were dissected from ovaries of female flies in Schneider's medium with 10% FBS (pH=6.85-6.95) as described previously^72. Freshly dissected egg chambers were fixed in 4% paraformaldehyde and then incubated overnight in 1×PBS with 0.4% triton and the following primary antibodies: mouse anti-PDI (1:200) (ADI-SPA-891-D Enzo Life Sciences, Inc.), chicken anti-GFP (1:200) (ab13970 Abcam plc.), Ple (anti-TH) antibody (a gift from the Craig Montell lab), mouse anti-Notch intracellular domain (1:100) C17.9C6 DSHB, rat Ecadherin antibody DCAD2 (1:50) DSHB, V5 Tag Monoclonal Antibody-Alexa Fluor 555 (2F11F7) Invitrogen, mouse anti-dEGFR (1:2000) E2906 Sigma Aldrich. O-fut1 antibody was used to confirm O-fut1 overexpression, and was a gift from Kenneth D. Irvine lab 73. Secondary antibodies were incubated for 2 hours, together with Hoechst stain for nuclei, and phalloidin stain for F-actin. […]

border cells = assay: Border cell migration in stage 10 egg chambers expressing Catsup RNAi (rescue by co-expressed transgenes); type: in vivo, Drosophila; conditions: co-expressed with Catsup RNAi in border cells
Description: Border cell clusters are composed of 4-6 migratory cells that surround and carry two non-migratory polar cells. Expression of a Catsup RNAi line in outer, migratory border cells using fruitlessGal4^51 inhibited migration (FIG. 2A). The defect was rescued by co-expression of UAS-CatsupV5 (FIG. 2B). Reduction of Catsup::GFP confirmed the effectiveness of the RNAi (FIGS. 2C, C′ and 2D, D′). Border cell migration was also impaired when Catsup RNAi was driven by c306Gal4 (FIG. 2E), which is expressed in both polar and migratory cells.
ZIP7 resides in the ER membrane and transports Zn^2+ from the ER to the cytosol^64. To test whether the Zn^2+ transporter activity of Catsup was important for border cell migration, we introduced point mutations, H315A and H344A, which replace histidine residues that are required for Zn^2+ transport and are conserved between Catsup, ZIP7 and a more distant family member from Arabidopsis IRT1. […] We generated transgenic flies expressing the mutants under Gal4/UAS control and included a V5 tag so that we could monitor protein abundance and localization. We then co-expressed each of these RNAi-resistant transgenes with CatsupRNAi and evaluated protein expression and border cell migration (FIGS. 5B-5E). […] All the proteins were stably expressed and correctly localized to the ER (FIGS. 5B-5E), therefore the lack of rescue was likely a consequence of impaired transporter activity rather than impaired expression, localization, or another function. […] From these experiments, we conclude that Zn^2+ transport is an essential function of Catsup in promoting ERAD.
Catsup mutant fly was generated by ethyl methanesulfonate (EMS) mutagen^37. The mutation results in glycine(G) to aspartic acid(D) replacement at amino acid 178. The FLP/FRT system was used to generate the Catsup^G178D homozygous mutant clones by combining FRT40A-Catsup^G178D with hsFLP12,yw;ubi:GFPnls, FRT40A or hsFLP12,yw;ubi:RFPnls, FRT40A/(CyO). Catsup::GFP expression pattern visualized by the line from VDRC 318542 in the fTRG stocks library. The UAS-CatsupRNAi transgenic line is from VDRC 100095 P{KK103630}VIE-260B. Wild type rescue w[*]; sna[Sco]/CyO; P{w[+mCJ=UAS-Catsup. V5}6 Bloomington 63229. Additional transgenic Drosophila stocks used: UAS-wRNAi/Cyo is a lab stock, UAS-PleRNAi Bloomington 25796 y[1] v[1]; P{y[+t7.7] v[+t1.8]=TRiP.JF01813}attP2, UAS-Ple is Bloomington 37539 w[*]; P{w[+mC]=UAS-ple.T}331f2, O-fucosyltransferasel Bloomington 9376 P{UAS-O-fut.}]1.1, UAS-Notch.Intracellular.Domain on third chromosome was a gift from Artavanis-Tsakonas lab^71. The ER stress marker UAS-Xbp1-EGFP.HG Bloomington 60731 w[*]; P{w[+mC]=UAS-Xbp1.EGFP.HG}3, UAS-HSC70-3 Bloomington 5843 w[126]; P{w[+mC]=UAS-Hsc70-3. WT}B. Catsup point mutations were cloned into vector pUASt-attb with forward primer ctctgaatagggaattggg[…] (SEQ ID NO:1) and reverse primer ccgcagatctgttaacgtca[…] (SEQ ID NO:2). The vector was injected to attp2 flies y1 w67c23; P{CaryP}attP2 by BestGene Inc.
When generating UAS-Catsup-point-mutations, we designed the construct so it cannot be targeted by the CatsupRNAi sequences by substituting redundant codons for the same amino acids within the region targeted by the RNAi. The RNAi resistant sequence is below with nucleic acid substitutions in lower case:
Point mutations were designed by changing codons at the following site CatsupH183A (CAC to GCC), CatsupH187A (CAT to GCT), CatsupH315A (CAT to GCT), CatsupH344A ([…]). […]

[3] = test system: border cells expressing Rh1^G69D; assay: ER stress (Xbp1::EGFP) and migration of border cells expressing misfolded rhodopsin Rh1^G69D; type: in vivo, Drosophila; conditions: overexpression
Description: To test whether ER stress impairs border cell migration, we expressed a misfolded rhodopsin protein Rh1^G69D, known to induce ER stress^61 As expected, Rh1^G69D induced Xbp1 expression in border cells (FIG. 4D insert). […] Since loss of Catsup caused ER stress, we wondered if Catsup over-expression might suppress ER stress.
as §1, with “63229. Additional transgenic Drosophila stocks used: UAS-wRNAi/Cyo is a lab stock, UAS-PleRNAi Bloomington 25796 y[1] v[1]; P{y[+t7.7] v[+t1.8]=TRiP.JF01813}attP2, UAS-Ple is Bloomington 37539 w[*]; P{w[+mC]=UAS-ple.T}331f2, O-fucosyltransferasel Bloomington 9376 P{UAS-O-fut.}]1.1, UAS-Notch.Intracellular.Domain on third chromosome was a gift from Artavanis-Tsakonas lab^71.” for “63229.”

photoreceptor cells = assay: Rh1G69D-induced photoreceptor cell death (rough eye) in flies; type: in vivo; conditions: flies expressing Rh1G69D, ZIP7 overexpression
Description: FIGS. 6A-6B. ZIP7 prevents Rh1G69D-induced photoreceptor cell death, which causes a rough eye. (FIG. 6A) Percentage of flies having the Rh1^G69D genotype that develop rough eye in presence and absence of ZIP7 expression. (FIG. 6B) Comparison of eye morphology of flies having the Rh1^G69D genotype in presence and absence of ZIP7 expression.
ZIP7 overexpression prevented photoreceptor cell death in the eyes of flies expressing mutant forms of rhodopsin.

[4] = test system: ubiquitinated proteins / proteasome; assay: Ubiquitinated protein levels (FK2/DNA ratio) in egg chambers with and without MG132; type: in vivo, Drosophila
Method: FIGS. 12A-12C. Overexpressing ZIP7 decreases ubiquitinated protein levels. (FIG. 12A) Egg chambers with and without ZIP7 overexpression (OE) were incubated with media for 5 hours. (FIG. 12B) Egg chambers with and without ZIP7 overexpression (OE) were treated with 10 μM MG132 proteasome inhibitor for 5 hours. (FIG. 12C) Comparison of FK2/DNA ratio egg for chambers incubated with media or 10 μM MG132 proteasome inhibitor for 5 hours with or without ZIP7 overexpression.
Egg chambers with and without ZIP7 overexpression (OE) were incubated with media in the presence or absence of the MG132 proteasome inhibitor (10 μM) for 5 hours (FIGS. 12A and 12B). Overexpressing ZIP7 decreased ubiquitinated protein levels and the FK2/DNA ratio (FIG. 12C).

Vap33 = assay: Neurodegeneration due to expression of Vap33 in flies; type: in vivo; conditions: ZIP7 overexpression
Description: FIG. 9. ZIP7 overexpression suppresses neurodegeneration due to expression of Vap33.
(§2) Overexpression of ZIP7 may mitigate ER stress and neuronal cell death in protein aggregation diseases (FIG. 7). We screened aggregate prone proteins for ZIP7 rescue (FIG. 8). ZIP7 overexpression suppressed neurodegeneration due to expression of Vap33 (FIG. 9) and amyloid β42 (FIG. 10).

amyloid β42 = assay: Neurodegeneration due to expression of amyloid β42 in flies; type: in vivo; conditions: ZIP7 overexpression
Description: FIG. 10. ZIP7 overexpression suppresses neurodegeneration due to expression of amyloid β42.
as §2

[5] = egg chambers, media with or without 10 μM MG132, 5 hours

Chain of misfolded rhodopsin protein Rh1^G69D (P06002 whole entry G69D): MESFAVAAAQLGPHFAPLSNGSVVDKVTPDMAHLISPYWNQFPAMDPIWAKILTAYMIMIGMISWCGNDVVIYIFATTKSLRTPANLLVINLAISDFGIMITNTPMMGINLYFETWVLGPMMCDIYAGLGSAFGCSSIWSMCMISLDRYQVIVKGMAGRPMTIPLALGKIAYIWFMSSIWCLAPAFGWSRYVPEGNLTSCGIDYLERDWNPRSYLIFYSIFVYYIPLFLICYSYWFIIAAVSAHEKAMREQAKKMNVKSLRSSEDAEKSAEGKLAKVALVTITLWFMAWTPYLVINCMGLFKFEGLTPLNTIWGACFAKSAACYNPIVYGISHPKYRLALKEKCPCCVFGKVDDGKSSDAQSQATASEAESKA

B1: CatsupV5: V5-tagged wild type Catsup, the Drosophila homolog of ZIP7, expressed under Gal4/UAS control (protein, UniProt Q9V3A4 1-449, looked up)
Protein catecholamines up: MAKQVADYQCSKLQLYQKLALVVILGAVLFSLPALCAGQGNPSFKYSREANENFDPQKAPRAEHHHHHDHDHDHGHHHHGHDHDHDHDHGHDHGHHHHGHDHDHDHDHGHHHHGHDERHTKAKPDLDMSTIWLHSIGSTLLISAAPFVLLYIIPLDNSEAMKPRLKVLLAFASGGLLGDAFLHLIPHATHPHSHGEHGHDHGHDHHHHHDGEEHEHGHSHDMSIGLWVLGGIIAFLSVEKLVRILKGGHGGHGHSHGAPKPKPVPAKKKSSDKEDSGDGDKPAKPAKIKSKKPEAEPEGEVEISGYLNLAADFAHNFTDGLAIGASYLAGNSIGIVTTITILLHEVPHEIGDFAILIKSGCSRRKAMLLQLVTALGALAGTALALLGAGGGDGSAPWVLPFTAGGFIYIATVSVLPELLEESTKLKQSLKEIFALLTGVALMIVIAKFE
modifications: V5 tag
notes: V5-tagged wild type Catsup, the Drosophila homolog of ZIP7, expressed under Gal4/UAS control
With B1 the “rescue of ER stress (Xbp1 and PDI accumulation)” value [1] was “rescued”, the “Rh1^G69D protein abundance” value [2] was “reduced Rh1^G69D protein to an undetectable level” and the “rescue of border cell migration defect” value (border cells) was “rescued”. The “Rh1^G69D-induced Xbp1 expression” value [3] was “rescued” and the “border cell migration blocked by Rh1^G69D” value [3] was “rescued”.

B2: ZIP7: zinc transporter protein 7, overexpressed from a transgene; SEQ ID NO:4 (Drosophila), SEQ ID NO:5 (human) (protein, UniProt Q92504 1-469, looked up)
Zinc transporter SLC39A7: MARGLGAPHWVAVGLLTWATLGLLVAGLGGHDDLHDDLQEDFHGHSHRHSHEDFHHGHSHAHGHGHTHESIWHGHTHDHDHGHSHEDLHHGHSHGYSHESLYHRGHGHDHEHSHGGYGESGAPGIKQDLDAVTLWAYALGATVLISAAPFFVLFLIPVESNSPRHRSLLQILLSFASGGLLGDAFLHLIPHALEPHSHHTLEQPGHGHSHSGQGPILSVGLWVLSGIVAFLVVEKFVRHVKGGHGHSHGHGHAHSHTRGSHGHGRQERSTKEKQSSEEEEKETRGVQKRRGGSTVPKDGPVRPQNAEEEKRGLDLRVSGYLNLAADLAHNFTDGLAIGASFRGGRGLGILTTMTVLLHEVPHEVGDFAILVQSGCSKKQAMRLQLLTAVGALAGTACALLTEGGAVGSEIAGGAGPGWVLPFTAGGFIYVATVSVLPELLREASPLQSLLEVLGLLGGVIMMVLIAHLE
With B2 the “photoreceptor cell death (rough eye)” value (photoreceptor cells) was “prevented”, the FK2/DNA ratio [4, 5] was “decreased” and the ubiquitinated protein levels [4, 5] was “decreased”. The “activity of the proteasome” value ([4]; even in the presence of a proteasome inhibitor) was “enhances”, the “neurodegeneration due to expression of Vap33” value (Vap33) was “suppressed” and the “neurodegeneration due to expression of amyloid β42” value (amyloid β42) was “suppressed”.
